From paper PMC11559003

Tests used:
[1] = target: T1, CRP (cAMP receptor protein) (Escherichia coli) (UniProt P0ACJ8); test: EMSA; conditions: EMSA: 10 nM probe, 1x Beyotime EMSA/Gel-Shift Binding Buffer, 25 C 30 min, 6% PAGE at 4 C in 0.5x TBE + 200 uM cAMP; BLI: 10 mM HEPES, 2 mM MgCl2, 0.1 mM EDTA …
T1 sequence: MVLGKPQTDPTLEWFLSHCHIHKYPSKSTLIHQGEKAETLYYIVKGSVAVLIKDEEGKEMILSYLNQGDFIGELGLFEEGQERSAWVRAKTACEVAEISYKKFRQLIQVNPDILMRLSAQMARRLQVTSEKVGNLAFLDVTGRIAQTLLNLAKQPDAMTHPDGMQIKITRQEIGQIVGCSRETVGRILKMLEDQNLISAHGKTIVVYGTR

[2] = test system: CRP (cAMP receptor protein) (Escherichia coli); test: BLI; conditions: EMSA: 10 nM probe, 1x Beyotime EMSA/Gel-Shift Binding Buffer, 25 C 30 min, 6% PAGE at 4 C in 0.5x TBE + 200 uM cAMP, BLI: 10 mM HEPES, 2 mM MgCl2, 0.1 mM EDTA …

For “AGCCAGTGGCGATAAGCGGAGTCTGCGAGGACGCTTCCTGAAAATCGTCTTTATTGCAGTGAATGACAGGCAAATGCGGAAGCAGCTACGCAAAACGCAACAACTTTGCGCAAAAAGTGTGAGCAAGGGCTACGTCACATGGCCGCGCCGTGTATAATAAGCTCGTATGTAGGCTTTATTTCGCTAATCACATACGAAAGATACTCATGGCTCAAGGCACGCCTTATCGCCACTGGCT (double strand) [spoT promoter probe]”, which binding [1] is on record?
The binding was “binds”.

How did the Kd ([2]; cAMP + (p)ppGpp) turn out when relA promoter probe was run?
Its Kd is 110 µM.

What about the Kd ([2]; cAMP, no (p)ppGpp) of the same substance?
Its Kd is 13 µM.
